The values below come from patent US20160146829A1.

Assay [1] has as its target Redbeads. The assay can be described thus: flow cytometry of red fluoromagnetic beads specific for alemtuzumab in PBS with 3% BSA, sample at 0 ug/ml (background of the series). Background: A flow cytometer gives signals particle by particle.
In assay [2] the target is Redbeads. The assay can be described thus: flow cytometry of red fluoromagnetic beads specific for alemtuzumab in spiked PBS with 3% BSA; the text words the ug/ml values as concentrations of the beads.

In the assay with Redbeads [1], alemtuzumab (antibody) displayed a Mean, FL1-H (blank sample at 0.0 ug/ml) of 2.11 and a Median, FL1-H (blank sample at 0.0 ug/ml) of 1.68. In the assay with Redbeads [2], this substance had a Mean, FL1-H (sample at 0.1 ug/ml) of 5.69; a Mean, FL1-H (sample at 0.5 ug/ml) of 49.1; a Mean, FL1-H (sample at 1.0 ug/ml) of 94.4; a Mean, FL1-H (sample at 10 ug/ml) of 493. In addition, in the assay with Redbeads [2], the Median, FL1-H (sample at 0.1 ug/ml) amounted to 5.26; the Median, FL1-H (sample at 0.5 ug/ml) amounted to 36.2; the Median, FL1-H (sample at 1.0 ug/ml) amounted to 74.3; the Median, FL1-H (sample at 10 ug/ml) was 483.
